The values below come from the DeepSol protein solubility set.

A short description of the data set: soluble on expression in E. coli; label from the status in PepcDB or PDB records.
“MAHHHHHHMQRNWVLLPQTVRAGDAPKSSAVRTPTRPLPYVCLKSNDGMEFVLPEVAARQSKMLAMLLDAVYSLPERGGFAEPTNARGEQHTTVHASNNIGTMPCIPLEVLSGRILELVCRYLVQRSTSDVNSTDEFALLGELNPTSSSDQDIVLGLLMASDYLDC”: the “soluble on expression in E. coli” value is “soluble”.
On to “MGSDKIHHHHHHMIDMNLILKKKFQEISEVDDFISKASTETDYFEPSTLSHGIPGIILFLDAYQKVFDINTEQIVHKYIMKLAPYLQSGQYNNSLFGGLSGIAFSMDLASQNGKNYQNILNNIDGHIVNEIENKFDQILQEPLNPLNYDTVSGLAGIGRYLLNRVDENEFNVKALKSILVYFKDIQYSKNSWVVPQESQFLESDKNYFTEGNINLGLAHGVLGPMSLFALCVIKGITIENHQHILKDMYKFIMDEKFCNHERWLQRYDLISERNHFNFIRNGWCYGNTGVMTTLFLIGQALYYYEIIKMSKKVMLQVVNDKDENLISPTICHGLSSQILMLTIMNLNFELNEVSDYITVLINKLISHYKEDYLVNFIDINENKQDVFKSRKVGLLEGELGVYLTLMTLKNTKILNEKNWTNAFLIS”, for which the “soluble on expression in E. coli” value is listed as “not soluble”.
To “MSLARPQLTILHCGKLIDGHSKNTKKVVSIIVEKNTIVDIADGYVDPGEGDLAIDLNGYTVLPGLMDMHVHLSGESNPKRYTERFTMDLDDYAYRSIAYAKRTLMAGFTTVRDLGGPINTSLRDAINNNQVVGPRVYSAGKAIATTGGHADPTNGMKFELMGDPGPAEGVVNGIAEARKAVRQRYKNGADLIKITATGGVLSVAKNGENPQFQEDEIRAIVETATDYGMHVAAHAHGAEGMKRAVRAGVRSIEHGTLMDEETMALMKEKGTYYIPTISAGEFVAEKAEIDGYYPDIVRPKAKKIGPQIKKTFQKAYDAGVSIAFGTDSGVSYHGDNAKEFAYMVEAGMSEIEAIISATKTAAELLEISNTLGTIEKDKLADIIAVEGDPIENIVALESVVFVMKNGVIYKNGDNEGHHHHHH” belongs “soluble”; to “MSLESSDDAPLPTDVPKDAAEALVCFLTQHVRALMSPHADPVPSCPRCGGTQIHKKGYAPLQTGPLPTYQCEGCDHYFSRLSGTPLSGHRIRRSAEELITMLPQAIGCPEAARRLGVMERTIRNTVRMFRRWVLELDPSGHHERHIRLGGRFTAVRDQAPPVVDEQIAYEDVALTAKLLEDFETIHSNKHFPMPDCPACGADRLVTKGTFSGFARFKCASCGKQFNRRTGTPFTRNRKVYERQRALIRYLGLPLSITQLAEIVGGDHGNVARLIREFRERCDQLDPTGQLSHRIRAGARPAEDTPCIQCGARHVRFDVRGITPGKCAVCGRLISMRRAIIERDGVLEVGPWQWAEQLQQEGHHHHHH”, “not soluble”.
Regarding “MGSDKIHHHHHHMPHYDVVDTSNNNGIMTVANWRSMKKYGVKAMIAKLSEGTYFTDQTAKPSIRNAITAGLHVNGYHFARFTTETGAKAEAQMAARSALKAGLGKSSVIVLDFEATNSGWNQNSKIVKAWINEVHRMGYPKTDVYTMGSWINSVPLNNSGRGGWVANYPYNPSGFKLYTGYNGWQWTSSMHFPGCYGGFDVSQMYSNYYYGTTTHVAKPKKAIYYRYNPKMIYARTPINRYKDVAFKHKVDNFPAGTVFAIAKVINYGKITRFQLANGYYITSNQTNVNRLYYSVDGGVKRVKSVRGTHRYKDKALKHVVDWQPAETEFDVAKIVKYGDTTRIQLANGLFISGNKKINKFVK”, the “soluble on expression in E. coli” value was “not soluble”.
“MITTRTAKQCGQADYGWLQARYTFSFGHYFDPTLLGYASLRVLNQEVLAPGASFQPRTYPKVDILNLILDGEAEYRDSDGNHVQAKAGEALLLAAQPGISYSEHNISKVKPLTRMQLWLDACPERENTLVQKIPLLAAQQQLLASPDGEQNSLQLRQQVWVHHITLEKGESLNFQLHGPRAYLQSIHGTFHAMTHNEEREALTCGDGAFIRDEPNITLVADTPLRALLVDLPV”: the “soluble on expression in E. coli” value was “not soluble”.
Consider “GMMNTTTLDRYFDLFDASRTDEKAFDDLISLFSDEITFVLNGQEQHGIDAWKQFVRMVFTANQDIKHMYAGWVPSETGDTMETRWAVCGKSADGSVFTQDGTDIARLNADGKIVYLANVPDDTAMFNQYND”, for which the “soluble on expression in E. coli” value is “soluble”.
Regarding “MSEKPIDKVFNRILVGVDDSADAQLAFRYAVRRAVKDNATLIITSILENDEMNVYQALTKDYVHGERYELVEHLKKYRDIAAKAGVKDIKEIVDEGNAGETIVKNVIPAVKADLLIIGSLSKKGISKYFGSQAAYMAKYAPISVLIIR”, the “soluble on expression in E. coli” value is given as “not soluble”.
Turning to “MSAVGEFPGSLGAKVFRLNGGLPGAKVGKNTGTSVKFGESSTQALIRAAYRQVFGRDLYEGQRLSVAEIQLENGDISVREFIKRLAKSELFLKLYWAPHYVCKAIEYMHRRLLGRPTYGRQEMNQYFDIASKQGFYAVVEAMIDSKEYSDAFGEDTVPYERYLEHHHHHH”, the “soluble on expression in E. coli” value was “soluble”.
Turning to “VVTSVADENVASRIASWGTGPAPDPRLDYAHAHLKGRRGRSPARPNAPIGARSFAVGRKICRVERFTLLEHGFVGHALHRVPCAGLVALVMSACSLAVCREVGNYAQRRVGRFAFFEQTFVRHALTPRCSRTDSKTSYTQLNRICKFPPHWV”, the “soluble on expression in E. coli” value is on record as “not soluble”.
As to “MGSDKIHHHHHHMYAETDFIALSALQHYVFCPRQCALIHLEQVWSENLYTAEGREMHERADSAVTSYREGVKVTRSVPLRSAVLGVSGVADVVEWHRREGGFEPFPVEYKRGKPKKHDADKVQLCAQAMCLEEMRSCAIPSGALFYGQTMRRLDVVFDEVLRSKTVAAAAGVHGLFSLGVTPHPEFGPKCKLCSLVDECLPEVLERHGSAKRYVQKLYRELSGEEI”, the “soluble on expression in E. coli” value is recorded as “not soluble”.
With “MGSSHHHHHHSSGLVPRGSHMARQNLKSTDRAVQQMLDKAKREGIQTVWDRYEAMKPQCGFGETGLCCRHCLQGPCRINPFGDEPKVGICGATAEVIVARGLDRSIAAGAAGHSGHAKHLAHTLKKAVQGKAASYMIKDRTKLHSIAKRLGIPTEGQKDEDIALEVAKAALADFHEKDTPVLWVTTVLPPSRVKVLSAHGLIPAGIDHEIAEIMHRTSMGCDADAQNLLLGGLRCSLADLAGCYMGTDLADILFGTPAPVVTESNLGVLKADAVNVAVHGHNPVLSDIIVSVSKEMENEARAAGATGINVVGICCTGNEVLMRHGIPACTHSVSQEMAMITGALDAMILDYQCIQPSVATIAECTGTTVITTMEMSKITGATHVNFAEEAAVENAKQILRLAIDTFKRRKGKPVEIPNIKTKVVAGFSTEAIINALSKLNANDPLKPLIDNVVNGNIRGVCLFAGCNNVKVPQDQNFTTIARKLLKQNVLVVATGCGAGALMRHGFMDPANVDELCGDGLKAVLTAIGEANGLGGPLPPVLHMGSCVDNSRAVALVAALANRLGVDLDRLPVVASAAEAMHEKAVAIGTWAVTIGLPTHIGVLPPITGSLPVTQILTSSVKDITGGYFIVELDPETAADKLLAAINERRAGLGLPW”, the “soluble on expression in E. coli” value is on record as “soluble”.
Take “SRSYRFSDYLHMSVSFSNDMDLFCGEDSGVFSGESTVDFSSSEVDSWPGDSIACFIEDERHFVPGHDYLSRFQTRSLDASAREDSVAWILKVQAYYNFQPLTAYLAVNYMDRFLYARRLPETSGWPMQLLAVACLSLAAKMEEILVPSLFDFQVAGVKYLFEAKTIKRMELLVLSVLDWRLRSVTPFDFISFFAYKIDPSGTFLGFFISHATEIILSNIKEASFLEYWPSSIAAAAILCVANELPSLSSVVNPHESPETWCDGLSKEKIVRCYRLMKAMAIENNRLNTPKVIAKLRVSVRASSTLTRPSDESSFSSSSPCKRRKLSGYSWVGDETSTSN”: the “soluble on expression in E. coli” value was “soluble”.
For “MSYLDTATDLPNQTLFLEYLNIALSNARRHHAQVGVLLCQINNWSDLKRKRGDAVANAFLQEAGQKLKSNLRNGDIVSRWDKDEFIFLVSKVQDTSSLLGIAQRLMKPVLAPVTAGGRPFQPEITYGVALYPVDGEQVNDLIGHIRENLQQLLPQPTNPGSGLEHHHHHH”, the “soluble on expression in E. coli” value is “soluble”.
To “MGSDKIHHHHHHMSKPGAELEEVFSSVQGEGMLIGLRQVFIRFRGCNLTCDYCDTPAGTPAEPCRIEQTPGRRDFVPADNPVSLDRVAALVEGWQRGWPGVHDSISITGGEPLLRHDILMQWLPVLREHLPVYLETNGVMHAALGLVINHVDIIGMDIKIPSTSGCTDLWDDHRQFLEIANTRRAFIKIVVGEETEDWEITRASEIIAGVNRDIPLILQPVTRAGDTLGIKPVKALELQELACRYLAEVRIIPQTHRFMGQL” belongs “not soluble”; to “GAMDAEGLALLLPPVTLAALVDSWLREDCPGLNYAALVSGAGPSQAALWAKSPGVLAGQPFFDAIFTQLNCQVSWFLPEGSKLVPVARVAEVRGPAHCLLLGERVALNTLARCSGIASAAAAAVEAARGAGWTGHVAGTRKTTPGFRLVEKYGLLVGGAASHRYDLGGLVMVKDNHVVAAGGVEKAVRAARQAADFALKVEVECSSLQEAVQAAEAGADLVLLDNFKPEELHPTATVLKAQFPSVAVEASGGITLDNLPQFCGPHIDVISMGMLTQAAPALDFSLKLFAKEVAPVPKIH”, “soluble”.
As to “MSLAESAFSERIVQNLLDTDFYKLTMMQAVLHNYPNAEVEWEFRCRNQEDLRLYLPAIREQLEYLAGLAISDEQLAFLERIPFLAPDFIRFLGLFRFNPRYVQTGIENDEFFLRLKGPWLHVILFEVPLLAMISEVRNRARYPAATVEQARERLQEKFDWLRREASAEELAGFKMADFGTRRRFSYRVHEAVVSGLKEDFPGCFVGTSNVHLARKLDLKPLGTMAHEWLMAHQQLGPRLIDSQSAALDCWVREYRGLLGIALTDCITTDAFLRDFDLYFAKLFDGLRHDSGDPLLWAEKTIAHYLKLGIDPLTKTLVFSDGLDLPRALKIYRALQGRINVSFGIGTHFTCDLPGVEPMNIVVKMSACNGHPVAKISDTPGKAQCRDPDFIHYLKHVFQVAEGHHHHHH”, the “soluble on expression in E. coli” value is on record as “soluble”.
Take “DVQLQESGPGLVKPSQSLSLTCTVTGYSITNNYAWNWIRQFPGNKLEWMGYINYSGTTSYNPSLKSRISITRDTSKNQFFLQLNSVTTEDTATYFCVRGYDYFAMDYWGQGTSVTVSSAKTTPPSVYPLAPGSAAQTNSMVTLGCLVKGYFPEPVTVTWNSGSLSSGVHTFPAVLQSDLYTLSSSVTVPSSTWPSETVTCNVAHPASSTKVDKKIVPRDCG”: the “soluble on expression in E. coli” value is listed as “soluble”.
With “GPGSMVVAVYPGTFDPLTRGHEDLVRRASSIFDTLVVGVADSRAKKPFFSLEERLKIANEVLGHYPNVKVMGFTGLLKDFVRANDARVIVRGLRAVSDFEYEFQMAGMNRYLLPDVETMFMTPSDQYQFISGTIVREIAQLGGDVSKFVFPSVEKWLTEKVAAMAQGPSA” the entry was “soluble”; with “MSLKVKRPFDAYLDEMNKITILLPHAYGTSRTFRLQEGSNVKDLPIAHTIALPDATKYECFIEEPLDVGKYYTVRDERNEETDLQIGAVIRTAIFDEKYYYEGTDLGAVHQKEATTFKVWAPTARLAKVRIYKSDKEYTDYEMYREENGVWAHTLHGDLAGEKYTFLVCINLIWNEAVDPYAKSVTVNGKYGVVIDLEKTNVTKRGQLPPLQAMTDAILYELHIRDATIHPGSGVSKKGTYKGLMEEGTTGRNGTLTGLSHIKDLGVTHVELLPLYCFGGVDEANPSSAYNWGYNPLYYNAPTGYYATNPSDPYNRIVECKQLIETFHEHGIRVIIDVVYNHVYERELSSFEKLVPGYYFRHGENGMPSNGTGVGNDIASERKMMRKFIVESILYWLTEYNVDGFRFDLMGILDVDTINIIEKEVRNIKRDALLLGEGWDLQTPLPLEEKATLNNAKKMPHIAQFNDQFRDGIKGSTFHINKRGFAFGGYVDCNHLQYIASGSLLSMKETGLFLEPVQSINYVECHDNMTMWDKLMRSNEESEEILKKRHLLATAMVILSQGIPFLHAGQEFYRTKQGNENSYNANDEINQLDWDRKEKEIETVNYIKGLIAIRKEHGAFRLQNADLIKKHMTFLQTSPEVLAYHLEHVESFGPWKEIVVLFNSSLEAKTVQLPKEETWHVLVNEKQAKIEPISSFRGKELRLAPISTYILTIMEGHHHHHH”, “soluble”.
